{
  "source": "patent US9579382B2",
  "target": "human CD20 (human) (UniProt P11836)",
  "data": [
    {"substance": "rituximab (antibody)", "values": [
      {"measurement": "% of cytotoxicity (dead CFSE+ 7-AAD+ Raji target cells), ADCC with PBMC effector cells at 25:1 for 6 hours", "value": 25, "unit": "%"}
    ]}
  ]
}
